The source of these data is PMC10266016 (Proceedings of the National Academy of Sciences of the …, 2023).

What all share (experiment): ITC
In general terms: In ITC the heat of successive injections is recorded.

In assay [1] the target is Human Scribble PDZ3 domain (human) (UniProt Q14160).
Assay [2] concerns the target Human Scribble PDZ1 domain (human) (UniProt Q14160).
Assay [3] deals with T1, Human Scribble PDZ3 domain (human, UniProt Q14160 1002-1092).
T1 sequence: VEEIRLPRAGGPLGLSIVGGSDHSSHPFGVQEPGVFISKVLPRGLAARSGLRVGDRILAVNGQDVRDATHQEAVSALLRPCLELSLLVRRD

Assay [4] deals with Human Scribble PDZ1 domain (human, UniProt Q14160 700-816).
A further assay addresses Scribble PDZ1 R762A (human, UniProt Q14160 700-816, R762A).
Another assay addresses T2, Scribble PDZ3 K1040A (human, UniProt Q14160 1002-1092, K1040A).
T2 sequence: T1 sequence with K39A

Residue numbers refer to the chain shown, from its start.

Sequence of Human Scribble PDZ1 domain (Q14160 700-816): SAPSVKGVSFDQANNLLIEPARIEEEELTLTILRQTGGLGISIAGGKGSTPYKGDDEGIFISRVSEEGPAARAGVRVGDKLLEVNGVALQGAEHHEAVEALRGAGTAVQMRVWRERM
Sequence of Human Scribble PDZ1 domain (human) (Q14160 700-816): as above
Sequence of Scribble PDZ1 R762A (Q14160 700-816 R762A): as the sequence (Q14160 700-816) above, with R63A counted along it

A word on the Kd: it is the free concentration of one partner at which half of the binding sites on the other are occupied at equilibrium, for simple one-to-one binding. Lower therefore signals higher affinity. As to PTHR PBM peptide, 4-mer, the Kd in assay [1] was 17.1 µM; in assay [2], 57 µM.

As for DEEASGPERPPALLQEEWETVM [PTHR PBM peptide, 22-mer], the Kd in assay [3] worked out at 19.2 µM; in assay [4], 11.5 µM.

QEEWETVM [PTHR PBM peptide, 8-mer]: the Kd with Scribble PDZ1 R762A turned out to be 39.9 µM; in assay [3], 13.4 µM; in assay [4], 31.7 µM; with Scribble PDZ3 K1040A, 23.5 µM.
